Experimental findings from US20030092631A1 (Genentech, published 2003) are described below.

Broadly, the IC50 is the point on the concentration scale where inhibition reaches its midpoint.

Bridge positions count the residues as written; N and C are the ends. Ends that are not written are not given here.

Test [1] addresses T1, IGF-1 (human, UniProt P05019 49-118). Description: monovalent phage ELISA; soluble IGF-1 titrated against peptide-phage binding to immobilised IGF-1. For orientation: In an ELISA, binding on a coated surface is turned into a signal by an enzyme label.
Test [2] deals with T2, phage displaying human IGF-1 (phage vector pIGF-g3) (human, UniProt P05019 49-118).
T2 construct: Construct as in Dubaquie and Lowman; also called IGF-1 displaying phage; Phage IGF-1; not shown: g3 of the phage vector pIGF-g3 (M13 gene III protein)
T2 sequence (P05019 49-118 limits assumed): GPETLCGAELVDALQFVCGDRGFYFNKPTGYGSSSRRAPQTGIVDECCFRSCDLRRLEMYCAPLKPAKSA
In words: competition phage ELISA: peptide against IGF-1 phage binding to IGFBP-1 on plate. The method, then: (§1) The IGF-1 displaying phage was titered against IGF bp1 and bp3 for a 500-1000× dilution for preincubation with serial dilutions the synthesized peptides and binding protein standards for 45 minutes. Immunosorbant plates were coated with IGF binding proteins and blocked with 0.5% TWEEN®-20 detergent and PBS and washed as above. The samples were added to the plates for 20 minutes, washed and detected as above. The experimental IC50 values are in Table 5.

Test [3] deals with T1, IGF-1. Description: displacement of 125I-IGF-1 (2 nM) from receptors on MCF-7 cells. The method, then:
Cell were passaged weekly in media containing a 50/50 mix of high-glucose DMEM/ Ham's F12, with 10% fet al bovine serum and 10 mM HEPES pH 7.2. Cells were plated and grown overnight maintained at 37° C. and 5% CO₂. For IGF-1 iodination, 50 μg of IGF-1 was diluted into 200 μL of PBS and added to a tube coated with 100 μg of IODOGEN® 1,3,4,6-tetrachloro-3a-6β-diphenylglycouril) (Pierce Chemical Co.), incubated with 1 mCi of ¹²²⁵-Nal (10 μL) at room temperature for 10-15 minutes. Synthesized peptides and binding protein controls were preincubated with 2 nm ¹²⁵I IGF-1 for 40 minutes at 37° C. The samples were added to cells for 30 minutes. The cells were washed with media and lysed with 1N NaOH.
On the technique in general: Displacement assays read how much labelled ligand stays bound in the presence of the test substance.

Test [4] addresses T1, IGF-1. Description: cell-based or functional assay.
The target in test [5] is T2, phage displaying human IGF-1 (phage …). In words: competition phage ELISA: peptide against IGF-1 phage binding to IGFBP-3 on plate. The method, then:
as §1

T1 sequence (P05019 49-118): as the sequence (P05019 49-118 limits assumed) above

As for “… (from UniProt P01241 27-217) (peptide)”, the IC50 with IGF-1 [1] was found to be 209 µM.

Turning to MDCLASVEALKWCMYG (synthetic peptide) [F1-2], the values for the half-inhibitory concentration (IC50) (in test [2]; with IGF-1 [3]; in test [5]) were 15.5 µM, 15.3 µM and 9.2 µM, respectively. For the same molecule, in the test with IGF-1 [4], the “IGF-1 KIRA” value came to 20 µM. The “Insulin KIRA” value with IGF-1 [4] turned out to be 32.6 µM.

With RNCFESVAALRRCMYG (disulfide 3-13, synthetic peptide; also called IGF-F1-1) [F1-1], the IC50 in test [2] was found to be 1.4 µM; with IGF-1 [3], 5.12 µM; in test [5], 2.93 µM. For the same molecule, the “IGF-1 KIRA” value in the test with IGF-1 [4] was 84.9 µM. The “Insulin KIRA” value in the test with IGF-1 [4] was determined as 5.48 µM.

Consider FECLTSVEALRGCMYG (synthetic peptide) [F1-3], for which the figures for the IC50 (in test [2]; in the test with IGF-1 [3]; in test [5]) were 11.7 µM, 45.7 µM and 12.8 µM, respectively. The “IGF-1 KIRA” value with IGF-1 [4] is 102 µM. Moreover, in the test with IGF-1 [4], the “Insulin KIRA” value came out at 66.1 µM.
